Source: patent publication US10774129B2, “Complexes of types of MHC class II that bind to collagen type II peptides and their use on diagnosis and treatment” (FRAUNHOFER-GESELLSCHAFT ZUR FÖRDERUNG DER ANGEWANDTEN …, priority 2011, dated 2020)
Square brackets hold non-standard residues; d marks the D form. Ends that are not written are not given here. Cit = NC(=O)NCCC[C@H](N)C(=O)O

Assays:
Assay in all cases: in vitro binding assay to recombinant MHC class II protein
[1] = molecular target: MHC class II of the HLA DRB1 0101 genotype (Homo sapiens, UniProt P01903+P01911, A100R/D57E/F55L/F60I/F76Y/I96L/L162R/M171V/P40L/Q125E/R42F/V115G/Y59C); design: key: *0101: the listing of the allele in the column for the allele indicates binding; *0401: “0401” in the “Binds to 0401” column indicates binding of the peptide to MHC class II of the HLA DRB1 0401 genotype; *0404: the listing of the allele in the column for the allele indicates binding; *0405: the listing of the allele in the column for the allele indicates binding; *0408: the listing of the allele in the column for the allele indicates binding; *1001: the listing of the allele in the column for the allele indicates binding; “no” or no data indicates no binding to a protein of that genotype
Description: (§1) Binding of the peptides to recombinant MHC class II protein of various alleles has been confirmed in an in vitro binding assay and the results are shown in Tables 1, 2 and 3. In table 1, 2 and 3, the listing of the allele in the column for the allele indicates binding. Thus “0401” in the “Binds to 0401” column indicates binding of the peptide to MHC class II of the HLA DRB1 0401 genotype. “no” or no data indicates no binding to a protein of that genotype. Empty boxes indicate no binding or that binding has not been determined. In the tables it is also indicated if the peptide has a citrulline residue, where “yes” indicates the presence of a citrulline residue and “no” indicates the absence of a citrulline residue.

[2] = molecular target: MHC class II of the HLA DRB1 0405 genotype (Homo sapiens, UniProt P01903+P01911, A100R/A169T/D86S/F76Y/I96L/K127E/L162R/M171V/N62H/P40V/Q125Y/R42H/S133A/S149N/S66Y/V115G/V209L/W38E); design: key: *0101: the listing of the allele in the column for the allele indicates binding; *0401: “0401” in the “Binds to 0401” column indicates binding of the peptide to MHC class II of the HLA DRB1 0401 genotype; *0404: the listing of the allele in the column for the allele indicates binding; *0405: the listing of the allele in the column for the allele indicates binding; *0408: the listing of the allele in the column for the allele indicates binding; *1001: the listing of the allele in the column for the allele indicates binding; “no” or no data indicates no binding to a protein of that genotype
Description: as §1

[3] = molecular target: MHC class II of the HLA DRB1 0404 genotype (Homo sapiens, UniProt P01903+P01911, A100R/A169T/F76Y/I96L/K127E/L162R/M171V/N62H/P40V/Q125Y/R42H/S133A/S149N/S66Y/V209L/W38E); design: key: *0101: the listing of the allele in the column for the allele indicates binding; *0401: “0401” in the “Binds to 0401” column indicates binding of the peptide to MHC class II of the HLA DRB1 0401 genotype; *0404: the listing of the allele in the column for the allele indicates binding; *0405: the listing of the allele in the column for the allele indicates binding; *0408: the listing of the allele in the column for the allele indicates binding; *1001: the listing of the allele in the column for the allele indicates binding; “no” or no data indicates no binding to a protein of that genotype
Description: as §1

[4] = molecular target: MHC class II of the HLA DRB1 0401 genotype (Homo sapiens, UniProt P01903+P01911, A100K/A169T/F76Y/I96L/K127E/L162R/M171V/N62H/P40V/Q125Y/R42H/S133A/S149N/S66Y/V115G/V209L/W38E); design: key to Binds to 0401: *0101: the listing of the allele in the column for the allele indicates binding; *0401: “0401” in the “Binds to 0401” column indicates binding of the peptide to MHC class II of the HLA DRB1 0401 genotype; *0404: the listing of the allele in the column for the allele indicates binding; *0405: the listing of the allele in the column for the allele indicates binding; *0408: the listing of the allele in the column for the allele indicates binding; *1001: the listing of the allele in the column for the allele indicates binding; “no” or no data indicates no binding to a protein of that genotype; details: recombinant MHC class II, HLA DRB1 0401
Description: as §1
Thus for these peptides no binding to HLA-DR0401 was observed when citrulline was exchanged with the original amino acid arginine (Table 4). No binding of the citrullinated peptides was seen to HLA-DR 03 or 02 variants.

Substance | Binds to 0101 [1] | Binds to 0405 [2] | Binds to 0404 [3] | Binds to 0401 [4]
vimentin 105: citrullinated human vimentin peptide (YAT[Cit]SSAV[Cit]L[Cit]SSVP; listed as Homo sapiens) | *0101 | no | no | *0401
vimentin 166: citrullinated human vimentin peptide (THSK[Cit]TLLIKTVET[Cit]; listed as Homo sapiens) | no | no | *0404 | no
vimentin 34: human vimentin peptide, not citrullinated (NDKARVEVERDNLAE; listed as Homo sapiens) | no | no | – | *0401
vimentin 133: citrullinated human vimentin peptide (DNASLA[Cit]LDLE[Cit]KVE; listed as Homo sapiens) | no | no | No | *0401
vimentin 41: human vimentin peptide, not citrullinated (NTLQSFRQDVDNASL; listed as Homo sapiens) | – | *0405 | *0404 | *0401
type II collagen 241: human collagen type II peptide, not citrullinated (LAGQRGIVGLPGQRG; listed as Homo sapiens) | – | *0405 | *0404 | no

Continued, values first:

Binds to 0101 [1] | Binds to 0405 [2] | Binds to 0404 [3] | Binds to 0401 [4] | Substance
*0101 | *0405 | – | – | vimentin 77: human vimentin peptide, not citrullinated (REYQDLLNVKMALDI; listed as Homo sapiens)
*0101 | no | No | *0401 | vimentin 111: citrullinated human vimentin peptide (FKNT[Cit]TNEKVELQEL; listed as Homo sapiens)
no | no | no | *0401 | vimentin 108: citrullinated human vimentin peptide (GVXLLQDSVDFSLAD; citrullinated; MOD_RES (3)..(3) Citrulline; listed as Homo sapiens)
*0101 | *0405 | – | *0401 | vimentin 64: human vimentin peptide, not citrullinated (STEYRRQVQSLTCEV; listed as Homo sapiens)
no | no | no | *0401 | vimentin 81: human vimentin peptide, not citrullinated (RKLLEGEESRISLPL; listed as Homo sapiens)
*0101 | *0405 | *0404 | *0401 | vimentin 3: human vimentin peptide, not citrullinated (YRRMFGGPGTASRPS; listed as Homo sapiens)
no | no | *0404 | *0401 | vimentin 33: human vimentin peptide, not citrullinated (VDQLTNDKARVEVER; listed as Homo sapiens)
*0101 | no | *0404 | *0401 | vimentin 1: human vimentin peptide, not citrullinated (MSTRSVSSSSYRRMF; listed as Homo sapiens)
*0101 | no | No | – | vimentin 117: citrullinated human vimentin peptide (LLAELEQLKGQGKS[Cit]; listed as Homo sapiens)
